Bridges are numbered along the chain shown (N, C = ends). Primed or numbered codes have the meaning given here. [ ]: non-standard residue; d: D form. 8x polyethylene glycol‑amino = O-(8x polyethylene glycol-amino)-tyrosine, SITE 45; 9x polyethylene glycol‑azido = O-(9x polyethylene glycol-azido)-tyrosine, SITE 42; Ygp″ = O-(8x polyethylene glycol-amino)-tyrosine; Yn3″ = O-(9x polyethylene glycol-azido)-tyrosine; hSer = N[C@@H](CCO)C(=O)O; Nle = CCCC[C@H](N)C(=O)O
T1: IL-2 receptor βγ complex (human, UniProt P14784 27-551; P31785 23-369)
T1 sequence (looked up) 1: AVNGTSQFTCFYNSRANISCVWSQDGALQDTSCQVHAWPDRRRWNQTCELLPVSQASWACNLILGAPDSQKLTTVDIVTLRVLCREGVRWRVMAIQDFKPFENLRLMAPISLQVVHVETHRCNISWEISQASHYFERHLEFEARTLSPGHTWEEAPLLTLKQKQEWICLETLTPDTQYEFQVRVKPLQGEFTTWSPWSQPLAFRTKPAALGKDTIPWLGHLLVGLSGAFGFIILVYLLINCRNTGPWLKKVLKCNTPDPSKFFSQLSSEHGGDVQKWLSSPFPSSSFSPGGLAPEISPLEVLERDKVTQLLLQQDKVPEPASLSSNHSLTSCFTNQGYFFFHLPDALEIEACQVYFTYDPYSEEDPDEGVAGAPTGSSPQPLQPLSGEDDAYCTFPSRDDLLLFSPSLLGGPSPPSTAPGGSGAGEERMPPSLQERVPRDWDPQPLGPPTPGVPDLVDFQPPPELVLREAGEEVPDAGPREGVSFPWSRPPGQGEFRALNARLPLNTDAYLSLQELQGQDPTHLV
T1 sequence (looked up) 2: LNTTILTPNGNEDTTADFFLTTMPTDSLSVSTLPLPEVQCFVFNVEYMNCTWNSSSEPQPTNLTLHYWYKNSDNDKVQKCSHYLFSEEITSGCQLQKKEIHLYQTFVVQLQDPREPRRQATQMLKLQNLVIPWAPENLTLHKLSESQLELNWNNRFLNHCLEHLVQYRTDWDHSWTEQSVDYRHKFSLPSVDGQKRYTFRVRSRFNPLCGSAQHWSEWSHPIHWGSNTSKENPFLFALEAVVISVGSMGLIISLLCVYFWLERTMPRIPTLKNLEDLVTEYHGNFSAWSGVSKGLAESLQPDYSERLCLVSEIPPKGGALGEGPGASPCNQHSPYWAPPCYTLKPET

B1: CMP-328, MMP2 cleaved molecule (ligand)
chain: APTSSSTKKTQLQLEHLLLDLQEILNGINNYKNPKLTR[Nle]L[hSer][Yn3″]KF[Ygp″][Nle]PKKATELKHLQCLEEELKPLEEVL[hSer]LAQSKNFHLRPRDLISNINVIVLELKGSETTF[hSer]CEYADETATIVEFLNRWITFSQSIISTLT
modifications: ends and bridges not checked; also: after MMP2 cleavage, remnants of the Lys9–Glu23 peptide linker not given here
B2: CMP-327, Matriptase cleaved molecule (ligand)
chain: APTSSSTKKTQLQLEHLLLDLQEILNGINNYKNPKLTR[Nle]L[hSer][Yn3″]KF[Ygp″][Nle]PKKATELKHLQCLEEELKPLEEVL[hSer]LAQSKNFHLRPRDLISNINVIVLELKGSETTF[hSer]CEYADETATIVEFLNRWITFSQSIISTLT
modifications: ends and bridges not checked; also: Lys9-Glu23 peptide bridge cut by matriptase, fragments left on side chains not given here
B3: CMP-326 (ligand)
chain: APTSSSTKKTQLQLEHLLLDLQEILNGINNYKNPKLTR[Nle]L[hSer][Yn3″]KF[Ygp″][Nle]PKKATELKHLQCLEEELKPLEEVL[hSer]LAQSKNFHLRPRDLISNINVIVLELKGSETTF[hSer]CEYADETATIVEFLNRWITFSQSIISTLT
modifications: bridge 9-23; not fully specified (bridges); ends not checked; also: further groups not given here
B4: CMP-316, MMP2 cleaved molecule (ligand)
chain: APTSSSTKKTQLQLEHLLLDLQKILNGINNYKNPKLTR[Nle]L[hSer]Y(9x polyethylene glycol‑azido)KFY(8x polyethylene glycol‑amino)[Nle]PKKATELKHLQCLEEELKPLEEVL[hSer]LAQSKNFHLRPRDLISNINVIVLELKGSETTF[hSer]CEYADETATIVEFLNRWITFSQSIISTLT
modifications: also: K23 side chain attached to another sequence, m93 after MMP2 cleavage, product not given here as a sequence
B5: CMP-316, uPa cleaved molecule (ligand)
chain: APTSSSTKKTQLQLEHLLLDLQKILNGINNYKNPKLTR[Nle]L[hSer]Y(9x polyethylene glycol‑azido)KFY(8x polyethylene glycol‑amino)[Nle]PKKATELKHLQCLEEELKPLEEVL[hSer]LAQSKNFHLRPRDLISNINVIVLELKGSETTF[hSer]CEYADETATIVEFLNRWITFSQSIISTLT
modifications: also: uPa cleavage product, not given here as a sequence, Lys23 side-chain attachment remnant unknown
B6: CMP-326, Matriptase cleaved molecule (ligand)
chain: APTSSSTKKTQLQLEHLLLDLQEILNGINNYKNPKLTR[Nle]L[hSer][Yn3″]KF[Ygp″][Nle]PKKATELKHLQCLEEELKPLEEVL[hSer]LAQSKNFHLRPRDLISNINVIVLELKGSETTF[hSer]CEYADETATIVEFLNRWITFSQSIISTLT
modifications: not fully specified; ends and bridges not checked; also: Lys9-Glu23 peptide bridge cut by matriptase, fragments left on side chains not given here
B7: CMP-327, uPa cleaved molecule (ligand)
chain: APTSSSTKKTQLQLEHLLLDLQEILNGINNYKNPKLTR[Nle]L[hSer][Yn3″]KF[Ygp″][Nle]PKKATELKHLQCLEEELKPLEEVL[hSer]LAQSKNFHLRPRDLISNINVIVLELKGSETTF[hSer]CEYADETATIVEFLNRWITFSQSIISTLT
modifications: ends and bridges not checked; also: after uPa cleavage, remnants of the Lys9–Glu23 peptide linker not given here
B8: CMP-326, uPa cleaved molecule (ligand)
chain: APTSSSTKKTQLQLEHLLLDLQEILNGINNYKNPKLTR[Nle]L[hSer][Yn3″]KF[Ygp″][Nle]PKKATELKHLQCLEEELKPLEEVL[hSer]LAQSKNFHLRPRDLISNINVIVLELKGSETTF[hSer]CEYADETATIVEFLNRWITFSQSIISTLT
modifications: not fully specified; ends and bridges not checked; also: Lys9-Glu23 peptide bridge cut by uPa, fragments left on side chains not given here
B9: CMP-316, Matriptase cleaved molecule (ligand)
chain: APTSSSTKKTQLQLEHLLLDLQKILNGINNYKNPKLTR[Nle]L[hSer]Y(9x polyethylene glycol‑azido)KFY(8x polyethylene glycol‑amino)[Nle]PKKATELKHLQCLEEELKPLEEVL[hSer]LAQSKNFHLRPRDLISNINVIVLELKGSETTF[hSer]CEYADETATIVEFLNRWITFSQSIISTLT
modifications: also: matriptase cleavage product, not given here as a sequence, Lys23 side-chain attachment remnant unknown
B10: CMP-331 (ligand)
chain: APTSSSTKKTQLQLEHLLLDLQKILNGINNYKNPKLTR[Nle]L[hSer]Y(9x polyethylene glycol‑azido)KFY(8x polyethylene glycol‑amino)[Nle]PKKATELKHLQCLEEELKPLEEVL[hSer]LAQSKNFHLRPRDLISNINVIVLELKGSETTF[hSer]CEYADETATIVEFLNRWITFSQSIISTLT
modifications: bridge N-23; not fully specified (bridges)
B11: CMP-327 (ligand)
chain: APTSSSTKKTQLQLEHLLLDLQEILNGINNYKNPKLTR[Nle]L[hSer][Yn3″]KF[Ygp″][Nle]PKKATELKHLQCLEEELKPLEEVL[hSer]LAQSKNFHLRPRDLISNINVIVLELKGSETTF[hSer]CEYADETATIVEFLNRWITFSQSIISTLT
modifications: bridge 9-23; not fully specified (bridges); ends not checked; also: further groups not given here
B12: CMP-326, MMP2 cleaved molecule (ligand)
chain: APTSSSTKKTQLQLEHLLLDLQEILNGINNYKNPKLTR[Nle]L[hSer][Yn3″]KF[Ygp″][Nle]PKKATELKHLQCLEEELKPLEEVL[hSer]LAQSKNFHLRPRDLISNINVIVLELKGSETTF[hSer]CEYADETATIVEFLNRWITFSQSIISTLT
modifications: not fully specified; ends and bridges not checked; also: Lys9-Glu23 peptide bridge cut by MMP2, fragments left on side chains not given here
B13: CMP-327, MMP2 cleaved molecule (ligand)
chain: APTSSSTKKTQLQLEHLLLDLQEILNGINNYKNPKLTR[Nle]L[hSer][Yn3″]KF[Ygp″][Nle]PKKATELKHLQCLEEELKPLEEVL[hSer]LAQSKNFHLRPRDLISNINVIVLELKGSETTF[hSer]CEYADETATIVEFLNRWITFSQSIISTLT
modifications: ends and bridges not checked; also: Lys9-Glu23 peptide bridge cut by MMP2, fragments left on side chains not given here
B14: CMP-328 (ligand)
chain: APTSSSTKKTQLQLEHLLLDLQEILNGINNYKNPKLTR[Nle]L[hSer][Yn3″]KF[Ygp″][Nle]PKKATELKHLQCLEEELKPLEEVL[hSer]LAQSKNFHLRPRDLISNINVIVLELKGSETTF[hSer]CEYADETATIVEFLNRWITFSQSIISTLT
modifications: bridge 9-23; not fully specified (bridges); ends not checked
B15: CMP-331, MMP2 cleaved molecule (ligand)
chain: APTSSSTKKTQLQLEHLLLDLQKILNGINNYKNPKLTR[Nle]L[hSer]Y(9x polyethylene glycol‑azido)KFY(8x polyethylene glycol‑amino)[Nle]PKKATELKHLQCLEEELKPLEEVL[hSer]LAQSKNFHLRPRDLISNINVIVLELKGSETTF[hSer]CEYADETATIVEFLNRWITFSQSIISTLT
modifications: not fully specified; also: N-terminus (pentanedioic acid-PEG9 linker) and Lys23 side chain attached to another sequence, what remains after MMP2 cleavage is not given here

The binders below were run against T1, IL-2 receptor βγ complex (assay: cell-based or functional assay).

Row | Binder | Average EC50, pSTAT5 Assay in NK cells [nM]
1 | B1 | 1.48
2 | B2 | 17.3
3 | B3 | 15.5
4 | B4 | 0.46
5 | B5 | 0.533
6 | B6 | 17.6
7 | B7 | 12.1
8 | B8 | 18
9 | B9 | 0.617
10 | B10 | 6.59
11 | B11 | 16.6
12 | B12 | 16
13 | B13 | 0.85
14 | B14 | 9.23
15 | B15 | 5.09
